In article PMC10770758, “Protocatechuate hydroxylase is a novel group A flavoprotein monooxygenase with a unique substrate recognition mechanism” (The Journal of Biological Chemistry, 2023):

Experiments:
purified protein [1] = substrate: O=C(O)c1ccc(O)cc1; assay: purified protein; details: apparent, 0.25 mM NADPH, 20 mM Tris-HCl pH 7.9, 25 °C
purified protein [2] = substrate: O=C(O)c1ccc(O)c(O)c1; assay: purified protein; details: apparent, 0.25 mM NADPH, 20 mM Tris-HCl pH 7.9, 25 °C

Protein | Km (purified protein [1]) | Km (purified protein [2]) | kcat (purified protein [2]) | kcat/Km (purified protein [2])
XaPobA (Xylophilus ampelinus) (protein) MRTQVGIVGAGPAGLMLAHLLRREGIDAVVIERAAREHVRTRLRAGVLEQGTVEMLREAGVGGRIDAVGMEMHAIDFRFGGRSHRLDFHEASGGRRAWVYPQHEVVTDLMSACDAGDVPILYEAPVERIEGLEDDRARIVFGQDGAAGEITCDFVAGCDGFRGVSRGSMPAGIARGYDRIYPFGWLGILADAPPASPDVTWGCSDRGFAMMSMRSPTVTRLYLQCEPDEDPDAWSDDRIWSELHRRLDVEGMPSLREGPIRDKGVTAMRSFLSEPMQHGRLFLAGDAAHIVPPTGAKGLNSAMADIKVLAAALVDHYRHGRSDRLATYSERCLRRMWLVQRFSAALCTMVHQFPGQNEFVRRLQRADLDYMTGTHAGRLQFAENFTGLPIE | 4.3 ± 0.3 × 10^−1 mM | 3.7 ± 0.9 × 10^−1 mM |  | 
PaPobA (Pseudomonas aeruginosa PAO1) (protein) MKTQVAIIGAGPSGLLLGQLLHKAGIDNVILERQTPDYVLGRIRAGVLEQGMVDLLREAGVDRRMARDGLVHEGVEIAFAGQRRRIDLKRLSGGKTVTVYGQTEVTRDLMEAREACGATTVYQAAEVRLHDLQGERPYVTFERDGERLRLDCDYIAGCDGFHGISRQSIPAERLKVFERVYPFGWLGLLADTPPVSHELIYANHPRGFALCSQRSATRSRYYVQVPLSEKVEDWSDERFWTELKARLPSEVAEKLVTGPSLEKSIAPLRSFVVEPMQHGRLFLAGDAAHIVPPTGAKGLNLAASDVSTLYRLLLKAYREGRGELLERYSAICLRRIWKAERFSWWMTSVLHRFPDTDAFSQRIQQTELEYYLGSEAGLATIAENYVGLPYEEIE |  | 1.3 ± 0.2 × 10^−1 mM |  | 
PkPobA (Pigmentiphaga kullae) (protein) MSERTQVGIVGAGPAGLLLSHLLHREGIESIVFDNRSREHVQQRLRAGVLEQGTVDLLAEVGLGERMRRLGMPQTSLDFRYAQASHRIDFAQEIGRTVMVYPQHEVVHDLIEARLAAGGDLRFDTPVTAIRDLEGPSPTILAGPEGRPVRCDFIAGCDGFHGICRDAIPASVMKAYDRVYPFGWLGILAEVPPAAPDVTWGCHETGFAMLSFRSPTRSRLYLQCEPDDDPDNWSDDRIWSALHERLDVPGMPPLIEGPIVQKGVTAMRSFQVEPLRHGALFLAGDAAHIVPPTGAKGLNSAVADIRVLGRALAAYYRQGSTRLLDSYSETCLRRMWLVHRFSAGLCTMVHSFPGQSDFARRLQRADLDYMTGSEPGRRAFSENFTGLPIEA | 3.7 ± 1.8 × 10^−1 mM | 3.2 ± 0.7 × 10^−1 mM | 1.1 ± 0.1 s⁻¹ | 3700 ± 600 M⁻¹ s⁻¹
